Experimental data: patent publication US20100316665A1
Each block holds one binder with its values, some of them ahead of it.

Key:
[1] = molecular target: T1, OmpC porin purified from Salmonella typhi (Salmonella enterica subsp. enterica serovar Typhi), A0A0H3; experiment: phage display panning on OmpC, frequency of occurrence among sequenced binders
T1 chain: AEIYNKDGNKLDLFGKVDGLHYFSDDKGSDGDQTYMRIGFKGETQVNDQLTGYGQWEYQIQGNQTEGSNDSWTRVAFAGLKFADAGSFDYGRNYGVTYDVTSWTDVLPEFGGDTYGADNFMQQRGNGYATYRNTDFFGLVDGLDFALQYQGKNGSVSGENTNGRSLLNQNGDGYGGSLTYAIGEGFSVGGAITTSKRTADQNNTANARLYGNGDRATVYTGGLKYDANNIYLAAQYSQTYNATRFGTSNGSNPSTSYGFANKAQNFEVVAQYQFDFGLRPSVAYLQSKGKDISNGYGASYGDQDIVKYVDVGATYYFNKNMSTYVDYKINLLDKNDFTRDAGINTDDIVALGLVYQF

[2] = molecular target: T2, OmpF porin purified from Salmonella typhi (Salmonella enterica subsp. enterica serovar Typhi), Q56113; experiment: phage display panning on OmpF, frequency of occurrence among sequenced binders
T2 chain: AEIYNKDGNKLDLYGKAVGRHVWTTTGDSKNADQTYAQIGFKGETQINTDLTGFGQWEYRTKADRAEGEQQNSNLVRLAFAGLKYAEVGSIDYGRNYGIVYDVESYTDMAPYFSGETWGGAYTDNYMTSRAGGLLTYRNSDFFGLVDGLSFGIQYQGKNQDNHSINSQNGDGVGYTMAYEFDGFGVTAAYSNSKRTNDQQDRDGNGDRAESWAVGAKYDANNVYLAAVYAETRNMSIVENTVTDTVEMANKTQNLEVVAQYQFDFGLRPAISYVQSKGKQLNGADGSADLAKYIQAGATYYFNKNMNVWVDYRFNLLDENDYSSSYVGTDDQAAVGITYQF

Binder: FHENWPS (modifications not checked) [affinity peptide FHENWPS]
Frequency (fraction of sequenced phage) [2]: 0.6

Binder: FHEFWPT (modifications not checked) [affinity peptide FHEFWPT]
Frequency (fraction of sequenced phage) [2]: 0.4

Binder: EAKGLIR (modifications not checked) [affinity peptide EAKGLIR]
Frequency (fraction of sequenced phage) [1]: 0.75

The remaining lines, values ahead:

Frequency (fraction of sequenced phage) [1]: 0.125
Binder: TATYLLD (modifications not checked) [affinity peptide TATYLLD]

Frequency (fraction of sequenced phage) [1]: 0.125
Binder: SLSLIQT (modifications not checked) [affinity peptide SLSLIQT]
